Test results published in FireProtDB (doi:10.1021/bi00052a024).

Conditions: Katsuwonus pelamis, pH 7.5, 25 °C, GdnHCl, CD, Tris 20 mM, NaCl 40 mM, reversible: yes

Cytochrome c K74W, P00025, sequence (P00025 whole entry K74W): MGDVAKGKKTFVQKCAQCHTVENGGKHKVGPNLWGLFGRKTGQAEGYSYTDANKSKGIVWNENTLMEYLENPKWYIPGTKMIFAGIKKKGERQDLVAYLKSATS
Cytochrome c K74F, P00025, sequence (P00025 whole entry K74F): as the sequence (P00025 whole entry K74W) above, with W74F counted along it
Cytochrome c K74Y, P00025, sequence (P00025 whole entry K74Y): as the sequence (P00025 whole entry K74W) above, with W74Y counted along it
Cytochrome c wild type, P00025, sequence (P00025 whole entry): as the sequence (P00025 whole entry K74W) above, with W74K counted along it
Cytochrome c K74M, P00025, sequence (P00025 whole entry K74M): as the sequence (P00025 whole entry K74W) above, with W74M counted along it

In the case of Cytochrome c K74F, P00025, the “ddG of mutation (higher = less stable)” value (structure 1CYC) is reported as 1.15 kcal/mol, the denaturant m value (structure 1CYC) is reported as 4.44 kcal/mol/M and the “denaturant midpoint (higher = more stable)” value (shortened to “denaturant midpoint”) (structure 1CYC) is reported as 1 M. The unfolding free energy (structure 1CYC) was 4.51 kcal/mol.
For Cytochrome c K74M, P00025, the “ddG of mutation (higher = less stable)” value (structure 1CYC) was 1 kcal/mol, the denaturant m value (structure 1CYC) was 4.43 kcal/mol/M and the “denaturant midpoint” value (structure 1CYC) was 1 M. For the same substance, the unfolding free energy (structure 1CYC) was 4.66 kcal/mol.
In the case of Cytochrome c K74W, P00025, the “ddG of mutation (higher = less stable)” value (structure 1CYC) is reported as 1.43 kcal/mol, the denaturant m value (structure 1CYC) is reported as 4.16 kcal/mol/M and the “denaturant midpoint” value (structure 1CYC) is reported as 1 M. It also gave an unfolding free energy (structure 1CYC) of 4.23 kcal/mol.
For Cytochrome c K74Y, P00025, the “ddG of mutation (higher = less stable)” value (structure 1CYC) was 1.05 kcal/mol, the denaturant m value (structure 1CYC) was 4.62 kcal/mol/M and the “denaturant midpoint” value (structure 1CYC) was 1 M. The unfolding free energy (structure 1CYC) was 4.61 kcal/mol.
With Cytochrome c wild type, P00025 the denaturant m value was 4.87 kcal/mol/M, the “denaturant midpoint” value was 1.16 M and the unfolding free energy was 5.66 kcal/mol.
